Results taken from the supplement of paper PMC10065799, “High-throughput profiling of sequence recognition by tyrosine kinases and SH2 domains using bacterial peptide display” (eLife, 2023).

How the values were obtained:
EPHB2 = EPHB2 (UniProt P29323); test: phosphorylation enrichment, bacterial display (enrichment ratio); higher = better substrate or ligand; peptides without Tyr show the background
MERTK = MERTK (UniProt Q12866); test: as above
Hck = Hck (UniProt P08631); test: as above
c-Src = test: as above
Fes = Fes (UniProt P07332); test: as above
Fes, sequence (P07332 whole entry, looked up): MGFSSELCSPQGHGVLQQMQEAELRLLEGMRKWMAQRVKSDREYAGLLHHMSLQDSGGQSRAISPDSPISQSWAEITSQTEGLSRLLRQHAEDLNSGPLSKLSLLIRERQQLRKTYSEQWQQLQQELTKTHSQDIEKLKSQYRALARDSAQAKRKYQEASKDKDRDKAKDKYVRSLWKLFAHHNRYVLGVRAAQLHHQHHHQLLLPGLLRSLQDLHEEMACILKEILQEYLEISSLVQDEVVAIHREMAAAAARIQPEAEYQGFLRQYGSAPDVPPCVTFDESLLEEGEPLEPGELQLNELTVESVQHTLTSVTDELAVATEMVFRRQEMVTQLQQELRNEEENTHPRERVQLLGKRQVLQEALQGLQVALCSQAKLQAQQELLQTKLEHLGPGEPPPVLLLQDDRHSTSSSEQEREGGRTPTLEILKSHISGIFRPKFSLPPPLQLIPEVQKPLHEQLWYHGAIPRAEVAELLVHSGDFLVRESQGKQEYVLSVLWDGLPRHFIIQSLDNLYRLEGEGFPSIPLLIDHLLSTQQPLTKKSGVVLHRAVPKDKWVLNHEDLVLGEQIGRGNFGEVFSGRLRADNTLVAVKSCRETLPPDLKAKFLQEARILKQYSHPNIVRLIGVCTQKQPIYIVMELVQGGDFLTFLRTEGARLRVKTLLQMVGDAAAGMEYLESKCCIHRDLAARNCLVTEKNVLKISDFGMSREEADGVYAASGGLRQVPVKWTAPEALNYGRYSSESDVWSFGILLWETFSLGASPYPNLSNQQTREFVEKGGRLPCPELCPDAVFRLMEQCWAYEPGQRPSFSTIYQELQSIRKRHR

FGFR1 = FGFR1 (UniProt P11362); test: as above
Fer (mouse) = test: as above
EPHB1 = EPHB1 (UniProt P54762); test: as above
EPHB1, sequence (P54762 whole entry, looked up): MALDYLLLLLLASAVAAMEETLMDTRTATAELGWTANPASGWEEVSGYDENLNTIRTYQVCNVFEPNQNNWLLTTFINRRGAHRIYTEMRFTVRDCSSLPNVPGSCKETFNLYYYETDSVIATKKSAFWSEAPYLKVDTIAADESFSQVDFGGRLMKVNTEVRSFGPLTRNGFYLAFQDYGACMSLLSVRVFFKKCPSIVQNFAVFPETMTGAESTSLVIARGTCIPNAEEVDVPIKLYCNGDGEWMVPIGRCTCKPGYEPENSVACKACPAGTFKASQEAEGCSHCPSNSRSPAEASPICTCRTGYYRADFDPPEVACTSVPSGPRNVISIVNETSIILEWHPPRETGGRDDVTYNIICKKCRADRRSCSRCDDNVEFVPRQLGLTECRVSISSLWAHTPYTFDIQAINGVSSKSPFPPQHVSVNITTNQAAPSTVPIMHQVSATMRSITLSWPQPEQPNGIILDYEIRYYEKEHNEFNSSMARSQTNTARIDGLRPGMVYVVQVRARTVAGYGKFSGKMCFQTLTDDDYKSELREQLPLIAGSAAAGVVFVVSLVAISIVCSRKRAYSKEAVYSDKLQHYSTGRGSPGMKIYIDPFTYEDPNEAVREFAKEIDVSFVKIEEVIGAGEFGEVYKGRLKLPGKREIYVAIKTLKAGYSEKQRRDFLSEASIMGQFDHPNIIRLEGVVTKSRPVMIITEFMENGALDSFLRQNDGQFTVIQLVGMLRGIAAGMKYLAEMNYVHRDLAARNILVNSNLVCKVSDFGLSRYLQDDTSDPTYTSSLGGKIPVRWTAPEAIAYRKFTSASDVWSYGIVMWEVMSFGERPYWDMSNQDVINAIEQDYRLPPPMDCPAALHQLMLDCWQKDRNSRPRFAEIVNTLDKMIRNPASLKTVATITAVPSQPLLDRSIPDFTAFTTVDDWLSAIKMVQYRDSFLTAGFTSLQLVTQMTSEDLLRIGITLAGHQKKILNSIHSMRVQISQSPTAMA

c-Abl (mouse) = test: as above
Jak2 = Jak2 (UniProt O60674); test: as above
Jak2, sequence (O60674 whole entry, looked up): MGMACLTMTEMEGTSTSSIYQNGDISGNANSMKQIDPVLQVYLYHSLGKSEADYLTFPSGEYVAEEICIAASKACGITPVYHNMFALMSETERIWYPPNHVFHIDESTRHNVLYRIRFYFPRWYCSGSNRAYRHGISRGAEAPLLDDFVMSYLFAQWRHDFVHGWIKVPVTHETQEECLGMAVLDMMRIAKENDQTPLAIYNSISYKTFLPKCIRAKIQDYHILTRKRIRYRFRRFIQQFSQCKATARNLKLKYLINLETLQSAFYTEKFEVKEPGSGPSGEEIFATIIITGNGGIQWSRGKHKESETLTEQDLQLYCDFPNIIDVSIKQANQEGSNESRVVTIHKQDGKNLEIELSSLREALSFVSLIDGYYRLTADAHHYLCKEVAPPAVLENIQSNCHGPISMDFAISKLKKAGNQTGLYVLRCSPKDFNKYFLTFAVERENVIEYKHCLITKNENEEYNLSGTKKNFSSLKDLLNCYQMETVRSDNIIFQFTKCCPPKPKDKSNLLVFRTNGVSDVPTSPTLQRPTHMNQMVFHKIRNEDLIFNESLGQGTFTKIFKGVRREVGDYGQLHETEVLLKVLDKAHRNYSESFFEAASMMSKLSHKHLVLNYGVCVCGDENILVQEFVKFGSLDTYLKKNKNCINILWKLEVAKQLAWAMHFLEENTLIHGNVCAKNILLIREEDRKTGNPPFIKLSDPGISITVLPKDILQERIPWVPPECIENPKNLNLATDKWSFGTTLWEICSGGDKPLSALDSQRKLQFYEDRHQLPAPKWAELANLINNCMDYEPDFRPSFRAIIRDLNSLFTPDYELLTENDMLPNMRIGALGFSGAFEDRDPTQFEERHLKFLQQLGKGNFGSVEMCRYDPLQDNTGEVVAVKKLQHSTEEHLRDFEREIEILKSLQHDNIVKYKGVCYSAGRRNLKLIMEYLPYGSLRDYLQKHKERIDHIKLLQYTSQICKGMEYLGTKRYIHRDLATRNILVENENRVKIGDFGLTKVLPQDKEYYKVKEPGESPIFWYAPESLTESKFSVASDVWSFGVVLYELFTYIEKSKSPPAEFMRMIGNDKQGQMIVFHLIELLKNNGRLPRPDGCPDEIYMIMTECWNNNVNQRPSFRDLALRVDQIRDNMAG

FGFR3 = FGFR3 (UniProt P22607); test: as above
AncSZ = test: as above
Fyn = Fyn (UniProt P06241); test: as above
c-Src SH2 = test: SH2 binding enrichment of the phosphorylated peptide, bacterial display (enrichment ratio); higher = better substrate or ligand; peptides without Tyr show the background
Grb2 SH2 = Grb2 SH2 (UniProt P62993); test: as above
SHP2-C SH2 = test: as above
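Throughout, for SH2 binding enrichment of the phosphorylated peptide, bacterial display: peptide library displayed on the E. coli surface as eCPX fusions, selected cells deep-sequenced, score is each peptide's frequency after selection divided by its frequency in the input.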
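Throughout, for phosphorylation enrichment, bacterial display: 11-residue human phosphosite peptides and single-mutation variants displayed on the E. coli surface, counted by deep sequencing, each peptide's frequency after selection divided by its frequency in the unselected input library; frequency after pTyr selection over input frequency; kinase dosed for 20-30% of maximal phosphorylation in three min.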

MERTK, sequence (Q12866 whole entry, looked up): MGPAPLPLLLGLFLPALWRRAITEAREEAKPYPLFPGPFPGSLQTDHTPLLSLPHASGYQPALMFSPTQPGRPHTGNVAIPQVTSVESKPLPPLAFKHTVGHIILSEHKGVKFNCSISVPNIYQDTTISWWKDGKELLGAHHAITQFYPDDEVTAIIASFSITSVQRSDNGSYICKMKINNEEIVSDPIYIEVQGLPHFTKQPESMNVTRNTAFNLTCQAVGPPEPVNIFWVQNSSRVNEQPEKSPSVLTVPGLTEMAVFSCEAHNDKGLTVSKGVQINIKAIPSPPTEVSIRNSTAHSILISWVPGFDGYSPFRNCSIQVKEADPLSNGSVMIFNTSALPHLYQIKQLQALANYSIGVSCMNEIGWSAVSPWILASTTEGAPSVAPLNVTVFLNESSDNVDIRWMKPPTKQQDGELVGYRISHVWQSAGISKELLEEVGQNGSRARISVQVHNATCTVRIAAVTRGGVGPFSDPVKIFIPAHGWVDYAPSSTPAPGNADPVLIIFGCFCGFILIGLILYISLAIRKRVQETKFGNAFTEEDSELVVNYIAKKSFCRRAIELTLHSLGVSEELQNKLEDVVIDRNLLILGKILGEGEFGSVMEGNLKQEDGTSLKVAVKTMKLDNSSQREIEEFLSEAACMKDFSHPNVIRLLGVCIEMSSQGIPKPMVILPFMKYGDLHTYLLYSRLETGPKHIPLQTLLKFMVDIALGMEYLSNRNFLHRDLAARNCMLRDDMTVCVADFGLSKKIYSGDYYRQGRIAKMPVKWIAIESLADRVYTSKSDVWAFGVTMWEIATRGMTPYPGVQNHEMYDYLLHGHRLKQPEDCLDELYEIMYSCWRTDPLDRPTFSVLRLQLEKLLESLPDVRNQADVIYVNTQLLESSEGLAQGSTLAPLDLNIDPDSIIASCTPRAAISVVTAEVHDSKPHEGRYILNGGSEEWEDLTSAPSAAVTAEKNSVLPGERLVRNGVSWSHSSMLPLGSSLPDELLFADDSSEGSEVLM
EPHB2, sequence (P29323 whole entry, looked up): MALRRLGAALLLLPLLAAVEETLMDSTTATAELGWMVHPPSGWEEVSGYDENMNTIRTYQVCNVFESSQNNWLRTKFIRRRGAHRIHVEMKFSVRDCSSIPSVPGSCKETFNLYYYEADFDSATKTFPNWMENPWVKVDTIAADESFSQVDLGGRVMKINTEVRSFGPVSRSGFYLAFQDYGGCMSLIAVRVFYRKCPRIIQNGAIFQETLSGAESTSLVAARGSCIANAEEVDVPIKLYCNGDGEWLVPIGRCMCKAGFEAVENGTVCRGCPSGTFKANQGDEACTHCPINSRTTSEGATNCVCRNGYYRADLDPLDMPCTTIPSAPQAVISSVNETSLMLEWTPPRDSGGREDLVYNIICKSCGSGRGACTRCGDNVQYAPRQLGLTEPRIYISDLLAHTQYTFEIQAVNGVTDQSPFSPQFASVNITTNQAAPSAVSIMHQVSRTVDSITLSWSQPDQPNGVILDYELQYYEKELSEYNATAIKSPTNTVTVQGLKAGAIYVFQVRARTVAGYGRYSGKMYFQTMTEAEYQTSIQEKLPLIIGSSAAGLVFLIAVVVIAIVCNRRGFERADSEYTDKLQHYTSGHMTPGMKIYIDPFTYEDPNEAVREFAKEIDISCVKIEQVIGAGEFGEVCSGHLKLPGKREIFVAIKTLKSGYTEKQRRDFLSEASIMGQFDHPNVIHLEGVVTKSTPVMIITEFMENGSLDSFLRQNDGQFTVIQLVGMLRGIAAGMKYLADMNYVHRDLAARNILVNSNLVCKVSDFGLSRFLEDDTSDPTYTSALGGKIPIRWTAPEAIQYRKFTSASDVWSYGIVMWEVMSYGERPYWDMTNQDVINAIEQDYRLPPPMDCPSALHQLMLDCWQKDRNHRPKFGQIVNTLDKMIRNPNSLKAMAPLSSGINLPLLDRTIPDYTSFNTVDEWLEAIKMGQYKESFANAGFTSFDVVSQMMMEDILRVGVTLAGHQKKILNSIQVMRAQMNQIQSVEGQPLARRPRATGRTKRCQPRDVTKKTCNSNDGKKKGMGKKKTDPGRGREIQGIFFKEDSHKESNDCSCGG

Sequence | phosphorylation enrichment (EPHB2) | phosphorylation enrichment (MERTK) | phosphorylation enrichment (Hck) | phosphorylation enrichment (c-Src) | phosphorylation enrichment (Fes) | phosphorylation enrichment (FGFR1) | phosphorylation enrichment (Fer (mouse)) | phosphorylation enrichment (EPHB1) | phosphorylation enrichment (c-Abl (mouse)) | phosphorylation enrichment (Jak2) | phosphorylation enrichment (FGFR3) | phosphorylation enrichment (AncSZ) | phosphorylation enrichment (Fyn) | SH2 binding enrichment (c-Src SH2) | SH2 binding enrichment (Grb2 SH2) | SH2 binding enrichment (SHP2-C SH2)
LPEENYQVLRF [ARHGAP1_Y365] | 1.41 | 0.802 | 2.82 | 1.32 | 1.39 | 2.81 | 2.13 | 4.13 | 1.18 | 1.44 | 2.17 | 1.43 | 0.768 | 0.548 | 1.53 | 0.784
LQLLGYRPVYS [CHST6_Y358] | 0.873 | 0.426 | 0.581 | 0.559 | 1.24 | 0.718 | 0.49 | 0.954 | 0.911 | 0.979 | 0.91 | 1.29 | 0.916 | 0.783 | 1.02 | 0.962
LREKVYVSLEA [RXRA_Y397_A398V] | 0.501 | 0.568 | 0.61 | 1.36 | 0.794 | 0.837 | 0.44 | 0.456 | 0.542 | 0.723 | 0.737 | 0.64 | 1.36 | 1.06 | 0.774 | 0.94
LRRREYQRQDF [PRKRIP1_Y90_YF] | 0.559 | 0.7 | 0.572 | 0.977 | 0.679 | 0.699 | 0.563 | 0.549 | 0.777 | 0.836 | 0.561 | 0.603 | 0.539 | 0.397 | 0.671 | 0.55
LSCLAYSGKDA [FXN_Y205_S202C] | 0.643 | 0.558 | 0.527 | 0.665 | 1.44 | 0.495 | 0.525 | 0.844 | 1.15 | 1.24 | 0.976 | 1.23 | 0.52 | 0.537 | 0.719 | 0.626
LSRDVYEEDSY [RET_Y900] | 0.685 | 0.699 | 0.771 | 0.719 | 1.39 | 0.656 | 0.416 | 0.535 | 0.906 | 1.55 | 0.968 | 1.39 | 0.503 | 0.978 | 0.652 | 0.726
LSSLAYSGKDA [FXN_Y205] | 0.702 | 0.307 | 0.579 | 0.47 | 0.703 | 0.66 | 0.615 | 0.819 | 0.85 | 0.75 | 0.671 | 0.859 | 0.809 | 0.59 | 0.683 | 0.885
LSVEIYDRREF [ITGB7_Y753_YF] | 0.483 | 0.522 | 2.83 | 1.01 | 1.25 | 0.498 | 0.595 | 0.428 | 0.569 | 0.958 | 0.824 | 1.26 | 0.946 | 0.542 | 0.985 | 0.648
LTFDEYRNISQ [ANXA3_Y216] | 0.782 | 0.498 | 1.08 | 0.643 | 1.93 | 1.23 | 1.08 | 1.01 | 1.13 | 1.58 | 1.49 | 1.82 | 0.854 | 0.49 | 2.68 | 0.585
LTMAPYSSVSV [FAM81A_Y24_L29V] | 0.531 | 0.527 | 0.724 | 1.07 | 1.08 | 0.653 | 9.11 | 0.683 | 0.811 | 0.933 | 0.899 | 1.05 | 0.575 | 3.26 | 0.783 | 3.6
LTRDIYKNDFF [ROS1_Y2110_A2106T_YF] | 0.495 | 0.723 | 0.717 | 0.475 | 1.07 | 1.05 | 0.937 | 0.683 | 0.673 | 0.79 | 0.963 | 0.974 | 0.836 | 0.395 | 1.48 | 0.731
LTTEAYEWEPR [ELMOD3_Y61] | 1.24 | 0.724 | 0.943 | 1.31 | 1.89 | 1.08 | 1.07 | 1.11 | 0.831 | 1.16 | 1.06 | 1.69 | 1.1 | 0.823 | 0.744 | 0.64
LTYHMYADPNF [SOS1_Y618] | 6.29 | 5.2 | 4.13 | 8.75 | 1.88 | 4.45 | 1.09 | 4.48 | 7.02 | 2.66 | 3.01 | 2.15 | 6.26 | 6.8 | 0.955 | 1.28
LVLIKYLPEWT [PSEN1_Y240_F237L] | 0.611 | 0.56 | 0.569 | 0.463 | 1.43 | 0.547 | 0.597 | 0.827 | 1.07 | 1.44 | 1.08 | 1.19 | 0.501 | 1.21 | 2.06 | 1.99
LVMFIDAIFGM [SCN1A_Y1684_Y1684D] | 1.67 | 1.1 | 1.38 | 0.91 | 3.65 | 1.07 | 1.63 | 2 | 1.74 | 1.79 | 2.33 | 2.28 | 1.13 | 0.698 | 1.15 | 1.15
LVMFIYVIFGM [SCN1A_Y1684_A1685V] | 0.615 | 0.365 | 0.571 | 0.275 | 0.673 | 0.583 | 0.366 | 0.496 | 0.468 | 0.477 | 0.604 | 0.694 | 0.517 | 1.1 | 2.05 | 1.49
LYIDSYEKDVA [PGM1_Y521] | 1.15 | 0.717 | 0.659 | 0.69 | 1.5 | 0.895 | 0.798 | 0.816 | 0.45 | 1.24 | 1.14 | 1.81 | 0.77 | 0.817 | 0.86 | 0.589

Sequence | phosphorylation enrichment (EPHB2) | phosphorylation enrichment (MERTK) | phosphorylation enrichment (Hck) | phosphorylation enrichment (c-Src) | phosphorylation enrichment (Fes) | phosphorylation enrichment (FGFR1) | phosphorylation enrichment (Fer (mouse)) | phosphorylation enrichment (EPHB1) | phosphorylation enrichment (c-Abl (mouse)) | phosphorylation enrichment (Jak2) | phosphorylation enrichment (FGFR3) | phosphorylation enrichment (AncSZ) | phosphorylation enrichment (Fyn) | SH2 binding enrichment (c-Src SH2) | SH2 binding enrichment (Grb2 SH2) | SH2 binding enrichment (SHP2-C SH2)
LYNQDYPIHCV [GATM_Y227_S231C] | 0.592 | 0.463 | 0.767 | 0.558 | 0.954 | 2.66 | 0.632 | 0.614 | 0.625 | 0.754 | 1.64 | 0.811 | 0.639 | 0.638 | 0.902 | 0.689
MAFDRYAAICS [OR8H2_Y123_H120Y_YF] | 0.998 | 0.889 | 0.76 | 0.576 | 1.3 | 0.548 | 0.597 | 0.893 | 0.95 | 1.2 | 0.641 | 1.15 | 0.479 | 1.93 | 0.853 | 0.881
MAFDRYVAVCA [OR52J3_Y125] | 0.7 | 0.522 | 0.537 | 0.458 | 1.08 | 0.519 | 0.468 | 0.649 | 0.779 | 0.995 | 0.582 | 0.845 | 0.438 | 0.663 | 0.746 | 0.647
MCDKEYYSVHN [MET_Y1234_Y1230C] | 0.865 | 0.478 | 0.734 | 1.02 | 0.862 | 5.1 | 0.594 | 0.625 | 0.566 | 1.31 | 3.33 | 1.79 | 0.684 | 1.16 | 1.13 | 0.908
MDDDQYALLTT [EFCAB6_Y675] | 0.785 | 0.632 | 0.956 | 0.64 | 1.26 | 1.1 | 0.736 | 0.677 | 0.732 | 0.996 | 1.18 | 1.39 | 0.64 | 0.695 | 0.841 | 0.544
MDYRSYPREYG [RBM10_Y44] | 0.402 | 0.296 | 0.41 | 0.319 | 0.626 | 0.404 | 0.331 | 0.337 | 0.472 | 0.515 | 0.684 | 0.621 | 0.366 | 0.476 | 0.752 | 0.591
MGGSVYFSFPD [HIKESHI_Y55_YF] | 0.991 | 3.89 | 2.64 | 5.05 | 1.32 | 3.19 | 0.55 | 1.09 | 1.12 | 1.94 | 2.85 | 1.55 | 4.01 | 0.662 | 0.892 | 0.908
MGSFNYLGFAW [SPTLC2_Y178_R183W_YF] | 1.09 | 0.681 | 0.588 | 0.72 | 1.16 | 0.971 | 0.559 | 2.34 | 0.768 | 1.85 | 1.03 | 1.17 | 0.547 | 0.385 | 0.676 | 0.601
MPLDQYSPSFP [FGFR1_Y776] | 0.617 | 0.595 | 0.6 | 0.552 | 0.941 | 0.631 | 0.654 | 0.399 | 0.706 | 0.917 | 0.79 | 0.857 | 0.496 | 0.518 | 1.08 | 0.803
MSRDIYSTDFF [NTRK1_Y676_YF] | 6.8 | 10.4 | 4.34 | 5.13 | 1.04 | 2.6 | 1.63 | 5.71 | 0.631 | 0.726 | 1.65 | 0.852 | 6.12 | 0.512 | 1.01 | 1.09
MSRNLYSGDCF [DDR2_Y736_Y740C_YF] | 1.97 | 5.87 | 2.12 | 1.93 | 1 | 0.793 | 0.911 | 2.02 | 0.739 | 0.903 | 0.968 | 1.01 | 1.71 | 0.929 | 0.837 | 0.595
MVTSGYKAKMI [EFR3A_Y447_T451M] | 0.528 | 0.414 | 0.39 | 0.435 | 0.589 | 0.384 | 0.393 | 0.401 | 0.552 | 0.695 | 0.389 | 0.563 | 0.355 | 0.539 | 0.871 | 0.469
NACGLYFKLHN [GATA2_Y376_YF] | 0.496 | 0.466 | 0.491 | 0.358 | 0.979 | 0.437 | 0.425 | 0.552 | 0.784 | 1.21 | 0.722 | 1.26 | 0.427 | 0.449 | 0.899 | 0.686
NCLRVYVAGRF [CRB1_Y711_E710V] | 0.627 | 0.339 | 0.414 | 0.567 | 1.15 | 0.447 | 0.434 | 0.497 | 1.03 | 1.08 | 0.758 | 1.71 | 0.535 | 0.678 | 1.11 | 0.97
NDQPDYDSVAS [GIT2_Y392] | 0.671 | 0.511 | 0.735 | 0.992 | 1.19 | 0.522 | 0.558 | 0.63 | 0.849 | 1.23 | 0.76 | 1.3 | 0.546 | 0.658 | 0.902 | 0.767
NFRRGYHLQVL [CD200R1L_Y138_H135R] | 0.473 | 0.394 | 0.386 | 0.38 | 0.699 | 0.462 | 0.439 | 0.379 | 0.486 | 0.528 | 0.528 | 0.621 | 0.416 | 0.753 | 0.847 | 0.713
